Consider three substances from publication PMC7055372.

The assay addresses Transforming growth factor β-1 (TGFβ-1) (UniProt P01137). Put plainly: ELISA of cell-culture supernatant with anti-TGFβ-1 antibody after acid activation (latent complex formation/secretion). The conditions noted are these: HEK293T cells transfected, supernatant after 48 h; acid-activated (short incubation with HCl); parent: est. 1.0; read off a plot.
Regarding “LAP of wild-type LTGFβ-1 C4S (full-length LTGFβ-1 expressed in HEK-293T cells) (from UniProt P01137) L111P”, the response (Normalized OD450) was found to be 0.18.
With “LAP of wild-type LTGFβ-1 C4S (full-length LTGFβ-1 expressed in HEK-293T cells) (from UniProt P01137) S109P”, the response (Normalized OD450) was determined as 0.53.
For the substance “LAP of wild-type LTGFβ-1 C4S (full-length LTGFβ-1 expressed in HEK-293T cells) (from UniProt P01137) E113P”, the response (Normalized OD450) was 0.6.
